doi:10.1101/2021.03.16.435520
“And” between values parts separate entries of the source, which are not always exact repeats. Equal values may be shown once.

Legend:
[1] = target: IRE1α kinase-endoribonuclease module, fully phosphorylated (IRE1-KR-3P) (human) (UniProt O75460); test: cross-linking
[2] = target: IRE1α kinase-endoribonuclease module, unphosphorylated (IRE1-KR-0P) (human) (UniProt O75460); test: cross-linking

| Substance | stoichiometry N [1] | stoichiometry N [2] |
| --- | --- | --- |
| IRE1α kinase-endoribonuclease module, fully phosphorylated (IRE1-KR-3P) (from UniProt O75460 547-977) (domain or fragment) | 2 and 4 and 6 | – |
| IRE1α kinase-endoribonuclease module, unphosphorylated (IRE1-KR-0P) (from UniProt O75460 547-977) (domain or fragment) | – | 2 |
